Assay [1] concerns the target polyclonal IgG (Gammanorm, Octapharma, Sweden). Put plainly: SPR (Biacore 8K+), variant amine-coupled to CM5, Gammanorm as analyte, steady state fit.
The target is the same in assay [2]. Put plainly: SPR (Biacore 8K+), variant amine-coupled to CM5, Gammanorm as analyte, 1:1 kinetic fit.

This note sets out measurements from patent US20240391984A1.

What is called Kd is the free concentration of one partner at which half of the binding sites on the other are occupied at equilibrium, for simple one-to-one binding.

B1: pAM153 (D1 domain; pos 10 N, pos 45 N, pos 60 N) (protein)
chain: PKEEVTIKANLIFADGKTQTAEFKGTFEEATAEAYRYADLLAKVNGEYTADLEDGGYTINIKFAGKEQPGEN
B1 yielded a Kd in assay [1] of 0.032 µM.

B2: pAM179 (D1 domain; pos 10 Y, pos 45 H, pos 60 Y) (designed binder)
chain: PKEEVTIKAYLIFADGKTQTAEFKGTFEEATAEAYRYADLLAKVHGEYTADLEDGGYTIYIKFAGKEQPGEN
Regarding B2, in assay [1], the Kd was 0.075 µM.

B3: pAM166 (D1 domain; pos 10 Q, pos 45 A, pos 60 Q) (designed binder)
chain: PKEEVTIKAQLIFADGKTQTAEFKGTFEEATAEAYRYADLLAKVAGEYTADLEDGGYTIQIKFAGKEQPGEN
The molecule B3 returned a Kd in assay [1] of 0.041 µM.

B4: pAM152 (C4 domain of Protein L; pos 10 N, pos 45 N, pos 60 N) (protein)
chain: PKEEVTIKVNLIFADGKTQTAEFKGTFEEATAEAYRYADLLAKVNGEYTADLEDGGYTINIKFAGKEQPGENPG
Take B4: the Kd in assay [1] came to 0.024 µM.

B5: pAM178 (C4 domain of Protein L; pos 10 Y, pos 45 H, pos 60 Y) (designed binder)
chain: PKEEVTIKVYLIFADGKTQTAEFKGTFEEATAEAYRYADLLAKVHGEYTADLEDGGYTIYIKFAGKEQPGENPG
B5: the Kd in assay [1] was 0.045 µM.

B6: pAM165 (C4 domain of Protein L; pos 10 Q, pos 45 A, pos 60 Q) (designed binder)
chain: PKEEVTIKVQLIFADGKTQTAEFKGTFEEATAEAYRYADLLAKVAGEYTADLEDGGYTIQIKFAGKEQPGENPG
B6 yielded a Kd in assay [1] of 0.038 µM.

B7: pAM146 (C1 domain of Protein L; pos 10 N, pos 45 N, pos 60 N) (protein)
chain: PEEEVTIKANLIFADGSTQNAEFKGTFAKAVSDAYAYADALKKDNGEYTVDVADKGLTLNIKFAGKKEKPEE
In turn, B7 gave a Kd in assay [1] of 0.061 µM.

B8: pAM159 (C1 domain of Protein L; pos 10 Q, pos 45 A, pos 60 Q) (designed binder)
chain: PEEEVTIKAQLIFADGSTQNAEFKGTFAKAVSDAYAYADALKKDAGEYTVDVADKGLTLQIKFAGKKEKPEE
With B8, the Kd in assay [1] worked out at 0.103 µM. This Kd lies about 1.7-fold higher than the previous one.

B9: pAM172 (C1 domain of Protein L; pos 10 Y, pos 45 H, pos 60 Y) (designed binder)
chain: PEEEVTIKAYLIFADGSTQNAEFKGTFAKAVSDAYAYADALKKDHGEYTVDVADKGLTLYIKFAGKKEKPEE
On to B9, for which, in assay [1], the Kd is 0.11 µM.

B10: pAM148 (C2 domain of Protein L; pos 10 N, pos 45 N, pos 60 N) (protein)
chain: PKEEVTIKVNLIFADGKTQTAEFKGTFEEATAKAYAYADLLAKENGEYTADLEDGGNTINIKFAGKETPETPEE
In assay [1], B10 yielded a Kd of 0.035 µM.

B11: pAM161 (C2 domain of Protein L; pos 10 Q, pos 45 A, pos 60 Q) (designed binder)
chain: PKEEVTIKVQLIFADGKTQTAEFKGTFEEATAKAYAYADLLAKEAGEYTADLEDGGNTIQIKFAGKETPETPEE
As to B11, in assay [1], the Kd was determined as 0.11 µM.

B12: pAM164 (C3 domain of Protein L; pos 10 Q, pos 39 D, pos 45 A, pos 57 Y, pos 60 Q) (designed binder)
chain: PKEEVTIKVQLIFADGKIQTAEFKGTFEEATAKAYAYADLLAKEAGEYTADLEDGGYTIQIKFAGKETPETPEE
In assay [1], B12 showed a Kd of 0.039 µM.

B13: pAM150 (C3 domain of Protein L; pos 10 N, pos 45 N, pos 60 N) (protein)
chain: PKEEVTIKVNLIFADGKIQTAEFKGTFEEATAKAYAYANLLAKENGEYTADLEDGGNTINIKFAGKETPETPEE
Turning to B13, the Kd in assay [1] was 0.04 µM.

B14: pAM151 (C3 domain of Protein L; pos 10 N, pos 39 D, pos 45 N, pos 57 Y, pos 60 N) (designed binder)
chain: PKEEVTIKVNLIFADGKIQTAEFKGTFEEATAKAYAYADLLAKENGEYTADLEDGGYTINIKFAGKETPETPEE
In the case of B14, the Kd in assay [1] is 0.03 µM.

B15: pAM175 (C2 domain of Protein L; pos 10 Y, pos 45 H, pos 57 Y, pos 60 Y) (designed binder)
chain: PKEEVTIKVYLIFADGKTQTAEFKGTFEEATAKAYAYADLLAKEHGEYTADLEDGGYTIYIKFAGKETPETPEE
The molecule B15 gave a Kd in assay [1] of 0.057 µM.

B16: pAM177 (C3 domain of Protein L; pos 10 Y, pos 39 D, pos 45 H, pos 57 Y, pos 60 Y) (designed binder)
chain: PKEEVTIKVYLIFADGKIQTAEFKGTFEEATAKAYAYADLLAKEHGEYTADLEDGGYTIYIKFAGKETPETPEE
In the case of B16, the Kd in assay [1] is 0.058 µM.

B17: pAM149 (C2 domain of Protein L; pos 10 N, pos 45 N, pos 57 Y, pos 60 N) (designed binder)
chain: PKEEVTIKVNLIFADGKTQTAEFKGTFEEATAKAYAYADLLAKENGEYTADLEDGGYTINIKFAGKETPETPEE
As for B17, the Kd in assay [1] turned out to be 0.045 µM.

B18: pAM174 (C2 domain of Protein L; pos 10 Y, pos 45 H, pos 60 Y) (designed binder)
chain: PKEEVTIKVYLIFADGKTQTAEFKGTFEEATAKAYAYADLLAKEHGEYTADLEDGGNTIYIKFAGKETPETPEE
On to B18, for which the Kd in assay [1] came to 0.105 µM.

B19: pAM163 (C3 domain of Protein L; pos 10 Q, pos 45 A, pos 60 Q) (designed binder)
chain: PKEEVTIKVQLIFADGKIQTAEFKGTFEEATAKAYAYANLLAKEAGEYTADLEDGGNTIQIKFAGKETPETPEE
As for B19, the Kd in assay [1] was found to be 0.188 µM.

B20: pAM162 (C2 domain of Protein L; pos 10 Q, pos 45 A, pos 57 Y, pos 60 Q) (designed binder)
chain: PKEEVTIKVQLIFADGKTQTAEFKGTFEEATAKAYAYADLLAKEAGEYTADLEDGGYTIQIKFAGKETPETPEE
With B20, in assay [1], the Kd is 0.039 µM.

B21: pAM176 (C3 domain of Protein L; pos 10 Y, pos 45 H, pos 60 Y) (designed binder)
chain: PKEEVTIKVYLIFADGKIQTAEFKGTFEEATAKAYAYANLLAKEHGEYTADLEDGGNTIYIKFAGKETPETPEE
B21 had a Kd in assay [1] of 0.137 µM. Against the preceding molecule, the Kd is about 3.5-fold higher.

B22: pAM145 (B5 domain of Protein L with H45N backbone; pos 10 N, pos 45 N, pos 60 N) (designed binder)
chain: KEQVTIKENIYFEDGTVQTATFKGTFAEATAEAYRYADLLSKENGKYTADLEDGGYTINIRFAGKEEPEE
For the molecule B22, the Kd in assay [1] amounted to 0.011 µM. This Kd is about 12-fold lower than that of the molecule before.

B23: pAM180 (B5 domain of Protein L; pos 10 N, pos 45 H, pos 60 N) (protein)
chain: KEQVTIKENIYFEDGTVQTATFKGTFAEATAEAYRYADLLSKEHGKYTADLEDGGYTINIRFAGKEEPEE
Consider B23, for which the Kd in assay [1] was found to be 0.021 µM.

B24: pAM171 (B5 domain of Protein L; pos 10 Y, pos 45 H, pos 60 Y) (designed binder)
chain: KEQVTIKEYIYFEDGTVQTATFKGTFAEATAEAYRYADLLSKEHGKYTADLEDGGYTIYIRFAGKEEPEE
Molecule B24 came in with a Kd in assay [1] of 0.04 µM.

B25: pAM158 (B5 domain of Protein L; pos 10 Q, pos 45 A, pos 60 Q) (designed binder)
chain: KEQVTIKEQIYFEDGTVQTATFKGTFAEATAEAYRYADLLSKEAGKYTADLEDGGYTIQIRFAGKEEPEE
On to B25, for which the Kd in assay [1] stood at 0.024 µM.

B26: pAM115 (B3 domain of Protein L; pos 10 N, pos 45 A, pos 60 N) (designed binder)
chain: PKEEVTIKANLIYADGKTQTAEFKGTFEEATAEAYRYADLLAKEAGKYTVDVADKGYTLNIKFAGKEKTPEE
B26: the figures for the Kd in assay [2] and in assay [1] were 0.012 µM and 0.051 µM, respectively.

B27: pAM126 (B3 domain of Protein L; pos 10 Q, pos 45 N, pos 60 Q) (designed binder)
chain: PKEEVTIKAQLIYADGKTQTAEFKGTFEEATAEAYRYADLLAKENGKYTVDVADKGYTLQIKFAGKEKTPEE
With B27, the dissociation constant Kd in assay [2] stood at 0.016 µM; in assay [1], 0.052 µM.

B28: pAM134 (B3 domain of Protein L; pos 10 Y, pos 45 H, pos 60 N) (designed binder)
chain: PKEEVTIKAYLIYADGKTQTAEFKGTFEEATAEAYRYADLLAKEHGKYTVDVADKGYTLNIKFAGKEKTPEE
As for B28, the Kd in assay [2] is 0.018 µM; in assay [1], 0.055 µM.

B29: pAM123 (B3 domain of Protein L; pos 10 Q, pos 45 N, pos 60 N) (designed binder)
chain: PKEEVTIKAQLIYADGKTQTAEFKGTFEEATAEAYRYADLLAKENGKYTVDVADKGYTLNIKFAGKEKTPEE
For B29, the Kd amounted to 0.013 µM in assay [2] and 0.051 µM in assay [1].

B30: pAM116 (B3 domain of Protein L; pos 10 N, pos 45 H, pos 60 N) (designed binder)
chain: PKEEVTIKANLIYADGKTQTAEFKGTFEEATAEAYRYADLLAKEHGKYTVDVADKGYTLNIKFAGKEKTPEE
B30: the Kd in assay [2] was 0.014 µM; in assay [1] it was 0.051 µM.

B31: pAM130 (B3 domain of Protein L; pos 10 Q, pos 45 H, pos 60 Q) (designed binder)
chain: PKEEVTIKAQLIYADGKTQTAEFKGTFEEATAEAYRYADLLAKEHGKYTVDVADKGYTLQIKFAGKEKTPEE
As to B31, the values for the Kd in assay [2] and in assay [1] were 0.019 µM and 0.057 µM, respectively.

B32: pAM156 (B2 domain of Protein L; pos 10 Q, pos 45 A, pos 60 Q) (designed binder)
chain: PKEEVTIKAQLIYADGKTQTAEFKGTFEEAAAEAYRYADALKKDAGEYTVDVADKGYTLQIKFAGKEKTPEE
B32 showed a Kd in assay [1] of 0.092 µM.

B33: pAM169 (B2 domain of Protein L; pos 10 Y, pos 45 H, pos 60 Y) (designed binder)
chain: PKEEVTIKAYLIYADGKTQTAEFKGTFEEAAAEAYRYADALKKDHGEYTVDVADKGYTLYIKFAGKEKTPEE
As for B33, in assay [1], the Kd turned out to be 0.076 µM. The Kd values of the last two molecules are within 1.5-fold of each other.

B34: pAM124 (B3 domain of Protein L; pos 10 Q, pos 45 A, pos 60 N) (designed binder)
chain: PKEEVTIKAQLIYADGKTQTAEFKGTFEEATAEAYRYADLLAKEAGKYTVDVADKGYTLNIKFAGKEKTPEE
Consider B34, for which the results for the Kd in assay [2] and in assay [1] were 0.012 µM and 0.051 µM, respectively.

B35: pAM143 (B2 domain of Protein L; pos 10 N, pos 45 N, pos 60 N) (protein)
chain: PKEEVTIKANLIYADGKTQTAEFKGTFEEAAAEAYRYADALKKDNGEYTVDVADKGYTLNIKFAGKEKTPEE
Regarding B35, the Kd in assay [1] was 0.036 µM. This lies in the double-digit nanomolar range.

B36: pAM144 (B4 domain of Protein L; pos 10 N, pos 45 N, pos 60 N) (protein)
chain: PKEEVTIKANLIYADGKTQTAEFKGTFAEATAEAYRYADLLAKENGKYTADLEDGGYTINIRFAGKKVDEKPEE
B36 displayed a Kd in assay [1] of 0.038 µM. The Kd values of the last two molecules are within 1.5-fold of each other.

B37: pAM170 (B4 domain of Protein L; pos 10 Y, pos 45 H, pos 60 Y) (designed binder)
chain: PKEEVTIKAYLIYADGKTQTAEFKGTFAEATAEAYRYADLLAKEHGKYTADLEDGGYTIYIRFAGKKVDEKPEE
Molecule B37 registered a Kd in assay [1] of 0.049 µM. The Kd values of the last two molecules are within 1.5-fold of each other.

B38: pAM157 (B4 domain of Protein L; pos 10 Q, pos 45 A, pos 60 Q) (designed binder)
chain: PKEEVTIKAQLIYADGKTQTAEFKGTFAEATAEAYRYADLLAKEAGKYTADLEDGGYTIQIRFAGKKVDEKPEE
Molecule B38 registered a Kd in assay [1] of 0.038 µM.

B39: pAM141 (B1 domain of Protein L; pos 10 N, pos 45 N, pos 60 N) (protein)
chain: SEEEVTIKANLIFANGSTQTAEFKGTFEKATSEAYAYADTLKKDNGEYTVDVADKGYTLNIKFAGKEKTPEE
In turn, B39 gave a Kd in assay [1] of 0.048 µM. The Kd values of the last two molecules are within 1.5-fold of each other.

B40: pAM167 (B1 domain of Protein L; pos 10 Y, pos 45 H, pos 60 Y) (designed binder)
chain: SEEEVTIKAYLIFANGSTQTAEFKGTFEKATSEAYAYADTLKKDHGEYTVDVADKGYTLYIKFAGKEKTPEE
The molecule B40 registered a Kd in assay [1] of 0.097 µM. Against the preceding molecule, the Kd is about 2-fold higher.

B41: pAM154 (B1 domain of Protein L; pos 10 Q, pos 45 A, pos 60 Q) (designed binder)
chain: SEEEVTIKAQLIFANGSTQTAEFKGTFEKATSEAYAYADTLKKDAGEYTVDVADKGYTLQIKFAGKEKTPEE
B41 had a Kd in assay [1] of 0.065 µM. The Kd values of the last two molecules are within 1.5-fold of each other.
